Test results from PMC4958273, “Expression and preliminary characterization of human MICU2” (Biology Open, 2016).

Target: the molecule itself
Experiment: SEC-MALS; Ca2+-bound condition (5 mM CaCl2); protein at 0.5-2.5 mg/ml, 200 µl injected, KW-G and KW-803 columns, 0.5 ml/min; monomer to dimer

B1: MICU2-NΔ84-CΔ28 (domain or fragment, human, UniProt Q8IYU8 84-406, looked up)
chain: SLRKQRFMQFSSLEHEGEYYMTPRDFLFSVMFEQMERKTSVKKLTKKDIEDTLSGIQTAGCGSTFFRDLGDKGLISYTEYLFLLTILTKPHSGFHVAFKMLDTDGNEMIEKREFFKLQKIISKQDDLMTVKTNETGYQEAIVKEPEINTTLQMRFFGKRGQRKLHYKEFRRFMENLQTEIQEMEFLQFSKGLSFMRKEDFAEWLLFFTNTENKDIYWKNVREKLSAGESISLDEFKSFCHFTTHLEDFAIAMQMFSLAHRPVRLAEFKRAVKVATGQELSNNILDTVFKIFDLDGDECLSHEEFLGVLKNRMHRGLWVPQHQS
notes: human MICU2 (BC031089.1), N-terminal deletion starting at amino acid 84, the C-terminal 28 amino acids deleted; lacks Cys413; Predicted molecular weight ~40 kDa; source: E. coli BL21 (DE3); purified (Ni-NTA, SEC) for MALLS; in lysate (cells mixed and sonicated together) for the pull-down; not shown: His-tag, N-terminal, kept
In the case of B1, the “stoichiometry N” value is reported as 2.
